Test results from patent US20230295310A1 (ABCELLERA BIOLOGICS, published 2023).
Positions count from the first letter of the chain named.

B1: mAb 47 (antibody, V domains shown)
V domain 1: QAQLVQSGSELKKPGASVKVSCKASGYTFTKHSMNWVRQAPGQGLEWMGWINTNTGNPTYAQGFTGRFVFSLDTSVTTAYLQISSLKAEDTAVYYCAREGDYDFWSGFFNFDYWGQGTLVTVSS
V domain 2: B1 V domain 1
B2: mAb 106 (antibody, V domains shown)
VH: QVQLVESGGGVVQPGRSLRLSCAASGFTFRSYGMHWVRQAPGKGLEWVAIIWYNGNKKDYVDSVKGRFTISRDNSKNTLYLQMNSLRAEDTALYYCARGPGYNWFDPWGQGTLVTVSS
VL: DIQMTQSPPSLSASVGDRVTITCRASQRISSYLNWYQQKPGKAPKLLIYAASSLQSGVPSRFSGSGSGTDFTLTISSLQPEDFATYYCQQSDSFPLTFGGGTKVEII
B3: mAb 110 (antibody, V domains shown)
VH: B2 VH with T78M
VL: B2 VL with K39R, S91T
B4: mAb 111 (antibody, V domains shown)
VH: EVQLVESGGVLVKTGGSLRLSCVASGFSFKKAWMNWVRQAPGKGLEWVGRIKRNSDGGAADYAAPVKDRFTLSRDDSKNTLYLQMNSLKTEDTAVYYCTTLDSSSWYVGYYYMDVWGKGTTVTVSS
VL: DIHMTQSPSSVSASLGDRVTFTCRASQNINNWLAWYQQKPGKAPKLLIYTASSLQSGVPSRFSGSGSGTDFTLTISSLQPDDFATYYCQQAHSLPITFGQGTRLGIK
B5: mAb 112 (antibody, V domains shown)
VH: B4 VH with V10G, L18H, A59T, A60T, D68G, T71I
VL: B4 VL with H3Q, L15V, F21I, N28D, L46I, S53N, D81E, Y87F, G105E
B6: mAb 113 (antibody, V domains shown)
VH: B4 VH with V10G, S55T, A59T, A60T, D68G
VL: B4 VL with H3Q, L15V, F21I, N28D, L46I, D81E, G105E
B7: mAb 115 (antibody, V domains shown)
VH: B4 VH with V10G, L18H, A59T, A60T, D68G, T71I
VL: B4 VL with H3Q, L15V, F21I, N28D, L46I, S53N, D81E, Y87F, S93G, G105E
B8: mAb 117 (antibody, V domains shown)
VH: B4 VH with V10G, S55T, A59T, A60T, D68G, W106L
VL: B4 VL with H3Q, L15V, F21I, N28D, D81E, G105E
B9: mAb 129 (antibody, V domains shown)
VH: B4 VH with V10D, S55T, A60T
VL: B4 VL with N28D, K45R, K107E
B10: mAb 114 (antibody, V domains shown)
VH: B4 VH with V10G, S55T, A59P, D68G, N79K
VL: DIQMTQSPSSVSASVGDRVIITCRASQDINNWLAWYLQRPGKAPKLLIYAASSLQSGVPSRFSGSGSGTDFTLTIGSLQPEDFATYYCQQAHSLPITFGQGTRLEIQ
B11: mAb 130 (antibody, V domains shown)
VH: B4 VH with V10G, A60T
VL: B4 VL with N28D, K39R, D81E
B12: mAb 123 (antibody, V domains shown)
VH: DVQLVESGGGTVKTGGSLRLSCVASGFSFKKAWMNWVRQAPGKGLEWVGRIKKNSDDGTADYAAPVKGRFTISRDDSKRTLFLQMNSLQTEDTAVYYCTTLDSSSWFVGYYYMDVWGKGTTVTVSS
VL: B10 VL with L37Q, R39K, A50T, G68V, T69S, G76D, Q107K
B13: mAb 127 (antibody, V domains shown)
VH: B4 VH with V10G, L18H, A59T, A60T, D68G, T71I
VL: DIQMTQSPSSVSASVGDRVTITCRASQDINNWLAWYQQKPGKAPKILIYTASNLQSGVPSRFSGSGSGTDFTLTISTLQPEDFATYFCQQAHGLPITFGQGTRLEIK
B14: mAb 120 (antibody, V domains shown)
VH: B4 VH with V10G, S55T, A59T, D68G, N79K, Y82F, W106Y
VL: B10 VL with I20T, L37Q, R39K, A50T, Q107K
B15: mAb 116 (antibody, V domains shown)
VH: B4 VH with V10G, A59T, A60T, D68G
VL: B13 VL with S9F, N53S, T77S, F87Y, G93S
B16: mAb 118 (antibody, V domains shown)
VH: EVQLVESGGGLVQPGRSLRLSCAASGFTFDDYTMHWVRQAPGKGLEWVSGISWNSGSIGYADSVKGRFTISRDNAKNSLYLQMNSLRAEDTALYYCSKDSSGYGYYLNYSLDVWGKGTTVTVSS
VL: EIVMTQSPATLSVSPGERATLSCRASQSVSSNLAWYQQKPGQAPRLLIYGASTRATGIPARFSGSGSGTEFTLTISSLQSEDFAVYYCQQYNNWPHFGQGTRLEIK
B17: mAb 128 (antibody, V domains shown)
VH: B16 VH with S97A, L107Y, N108Y, L111M
VL: EIVMTQSPATLSVSPGERATLSCRASQSVSSNLAWYQQKPGQAPRLLIYGASTRATGIPARFSGSGSGTEFTLTISSLQSEDFAVYYCQLYYNWPHFGQGTRLAIK
B18: mAb 121 (antibody, V domains shown)
VH: B16 VH with A24T, D30A, G59D, N77K, Y95F, S97A, Y105H, L107Y, N108F, S110Y
VL: B17 VL with A9G, E17K, A43G, G50S, A51T, F83S, L90H, Y92N, A104E
B19: mAb 126 (antibody, V domains shown)
VH: B16 VH with D30N, A40V, G59D, S97A, L107Y, N108Y, S110Y, L111M
VL: B17 VL with S31I, Y92H, A104E
B20: mAb 119 (antibody, V domains shown)
VH: B16 VH
VL: EIVMTQSPATLSVSPGERATLSCRASQSVSNLAWYQQKPGQAPRLLIYGASTRATGIPARFSGSGSGTEFTLTISSLQSEDFAVYYCQQYNNWPHFGQGTRLQIK
B21: mAb 140 (antibody, V domains shown)
VH: QVQLVESGGGVVQPGRSLRLSCAASGFTFSTYGMHWVRQAPGKGLEWVAVIWYDGSHKYYADSVKGRFTISRDNSKNTLYLQMNSLRAEDTAVYYCARTGITGTTAYFYFDYWGQGTLVTVSS
VL: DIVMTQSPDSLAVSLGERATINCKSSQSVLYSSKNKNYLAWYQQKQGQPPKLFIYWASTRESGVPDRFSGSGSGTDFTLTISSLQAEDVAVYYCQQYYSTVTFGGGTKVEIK
notes: VH and VL only

target: human CD3 (human, UniProt P07766 23-207; P04234 22-171; P09693 23-182); assay: cell-based or functional assay
Sequence (P07766 23-207, chain 1 of 3): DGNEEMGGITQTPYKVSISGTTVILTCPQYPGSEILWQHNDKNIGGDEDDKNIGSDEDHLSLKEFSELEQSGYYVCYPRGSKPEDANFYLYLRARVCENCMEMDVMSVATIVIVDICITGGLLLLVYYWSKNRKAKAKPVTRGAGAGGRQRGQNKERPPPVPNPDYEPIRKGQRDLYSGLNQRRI
Sequence (P04234 22-171, chain 2 of 3): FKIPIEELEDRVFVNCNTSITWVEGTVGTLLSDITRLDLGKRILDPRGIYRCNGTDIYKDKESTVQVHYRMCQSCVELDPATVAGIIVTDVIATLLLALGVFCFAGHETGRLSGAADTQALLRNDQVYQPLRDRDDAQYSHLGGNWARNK
Sequence (P09693 23-182, chain 3 of 3): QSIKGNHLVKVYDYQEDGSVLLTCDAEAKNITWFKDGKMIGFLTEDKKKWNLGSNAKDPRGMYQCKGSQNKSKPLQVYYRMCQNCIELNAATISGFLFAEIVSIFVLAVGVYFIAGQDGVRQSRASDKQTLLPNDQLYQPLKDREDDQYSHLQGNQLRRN

CD4 EC50 (nM); CD69/CD25 on human T cells, plate-coated antibody | CD8 EC50 (nM); CD69/CD25 on human T cells, plate-coated antibody | Binder
23.4 nM | 23.8 nM | B1
13.6 nM | 12.9 nM | B2
13.5 nM | 15.3 nM | B3
6.96 nM | 9.42 nM | B4
6.48 nM | 6.56 nM | B5
8.81 nM | 8.89 nM | B6
7 nM | 7.16 nM | B7
6.49 nM | 6.59 nM | B8
12.5 nM | 12.5 nM | B9
12.6 nM | 12.5 nM | B10
10.9 nM | 10.8 nM | B11
11.7 nM | 11.6 nM | B12
10.2 nM | 10.3 nM | B13
6.41 nM | 6.46 nM | B14
6.96 nM | 7.01 nM | B15
10.4 nM | 11.2 nM | B16
11.6 nM | 11.7 nM | B17
12.3 nM | 12.3 nM | B18
10.2 nM | 11 nM | B19
12.9 nM | 13.8 nM | B20

target: T1, human CD3e/d (human, UniProt P07766 23-126; P04234 22-105); assay: SPR (Carterra LSA), mAb on chip
T1 construct: Bought soluble protein; also called hCD3e/d; human CD3/ed (Sino CT038-H2508H)
T1 sequence (P07766 23-126, chain 1 of 2): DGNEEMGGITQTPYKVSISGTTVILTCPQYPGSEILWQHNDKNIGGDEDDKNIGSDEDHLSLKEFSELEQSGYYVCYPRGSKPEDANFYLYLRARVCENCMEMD
T1 sequence (P04234 22-105, chain 2 of 2): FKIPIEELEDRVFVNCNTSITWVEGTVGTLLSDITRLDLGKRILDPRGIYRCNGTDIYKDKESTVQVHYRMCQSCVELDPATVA
Protocol: High-throughput surface plasmon resonance (SPR) coupled kinetic experiments were performed on a Carterra LSA® instrument equipped with an HC-30M chip type (Carterra, USA). The instrument uses two microfluidic modules, a single-flow cell (SFC) and a 96 printhead, to deliver samples to the chip surface via back-and-forth cycling of a fixed sample volume. An up to 384-ligand array is generated by docking the MFC onto each of the four nested print block locations in a serial manner.
The purified mAbs were immobilized on a Carterra LSA® HC-30M chip by direct coupling. The chip surface was first activated by flowing a freshly prepared 1:1:1 activation mix of 100 mM MES pH 5.5, 100 mM S-NHS, 400 mM EDC for 7 min. mAbs diluted to 10 μg/mL in 10 mM NaOAc pH 4.25+0.01% TWEEN®20 were then injected and printed onto the chip surface simultaneously using the MFC printhead for 10 min. Finally, the chip surface was quenched by flowing 1 M ethanolamine for 7 min (to block the excess reactive esters), followed by 2 wash steps of 15 s each in 25 mM MES pH 5.5. In addition to expressed and purified mAbs, relevant benchmarks and negative control mAbs were also printed on the chip surface.
The data were analyzed using the Carterra Kinetics analysis software. Briefly, the data were referenced with the interstitial reference spots and double-referenced to a buffer cycle, and then fit globally to a 1:1 Langmuir binding model to determine their apparent association (ka) and dissociation (kd) kinetic rate constants and binding affinity constants (KD).

Kd | Binder
635 nM | B21
